In CN112390879A (UNIV SHANGHAI TECHNOLOGY, dated 2021):

How the values were obtained:
SARS-CoV-2 S蛋白的RBD蛋白 [1] = target: T1, SARS-CoV-2 S蛋白的RBD蛋白 (SARS-CoV-2, UniProt P0DTC2 319-541); assay: SPR, Biacore T200, RBD immobilised on CM5 chip, antibody in solution, 1:1 model
T1 construct: domain: RBD

SARS-CoV-2 S蛋白 (野生型) = SARS-CoV-2 S蛋白 (野生型) (SARS-CoV-2, UniProt P0DTC2 14-1273); assay: cell-based or functional assay
生物素化RBD = 生物素化RBD (SARS-CoV-2, UniProt P0DTC2 319-541)
SARS-CoV-2 S蛋白的RBD蛋白 [2] = target: T1, SARS-CoV-2 S蛋白的RBD蛋白; assay: ELISA, RBD coated at 2 μg/mL, 1F as human IgG1

B1: 抗体1F (antibody, V domains shown)
VH: EVQLVESGPGLVKPSETLSLTCTVSGGSISSSSYYWGWIRQPPGKGLEWIGSIYYRGSTYYNPSLKSRVTISVDTSKNQFSLKLSSVTAADTAVYYCARHVRSAYYYGSGSYRDEGNWFDPWGQGTLVTVSS
VL: QSVLTQPPSVSGAPGQRVTISCTGTRSNIGAGHDVHWYQQLPGTAPKLLIYGNNNRPSGVPDRFSGAKSGTSASLAITGLQAEDEADYYCQSYDRTLTSYVFGTGTKVTVL
Kd (SARS-CoV-2 S蛋白的RBD蛋白 [1]): 0.077 nM | 中和SARS-CoV-2活病毒 (Vero-E6细胞, RT-PCR) IC50 (SARS-CoV-2 S蛋白 (野生型)): 0.018 µg/mL | 中和野生型SARS-CoV-2假病毒 (293T-ACE2细胞, 荧光素酶) IC50 (SARS-CoV-2 S蛋白 (野生型)): 0.0464 µg/mL | IC50 (生物素化RBD): 0.213 µg/mL | EC50 (SARS-CoV-2 S蛋白的RBD蛋白 [2]): 0.0016 µg/mL
